Publication PMC8214912
Like-named read-outs stand apart in the source and are kept apart here.

Columns and labels:
Test in all cases: NMR titration
[1] = biological target: T1, N 1-209 (nucleocapsid N-terminal region: N-terminal flank, NTD and SR region) (SARS-CoV-2, UniProt P0DTC9 1-209)
[2] = biological target: T1, N 1-209 (nucleocapsid N-terminal …); remark: listed apart in the source
[3] = biological target: T1, N 1-209 (nucleocapsid N-terminal …); remark: listed apart in the source

Binder | Kd [2] [µM] | Kd [3] [µM] | other results
GUGUGUGCCUGU (ssRNA) [GU 12-mer] |  |  | Kd [1]: 6 ± 2 µM
UAAUAAC (mixed, 2'-deoxy at terminal nucleotides 1 (dU) and 7 (dC); remainder RNA) [dUAAUAAdC] | 138 ± 12 |  | 
TAATAAC (ssDNA) |  | 110 ± 8 | 
GGUGGGAGCCUCUUUUAUGGGGUGACUGCC (structured_RNA) [H25 30-mer] |  | 19.9 ± 4.7 | 
AAUAA (ssRNA) | 189 ± 22 |  | 
